Source: doi:10.64898/2025.12.22.696113

The substances below were run against extracellular domain of Arabidopsis thaliana HAESA-LIKE 3 (HSL3, AT5G25930, residues 23–662) (Arabidopsis thaliana) (assay: SPR).

| Substance | Kd [µM] | kon [M⁻¹ s⁻¹] |
| --- | --- | --- |
| CTNIP4^48–70 (peptide) | 1.99 | 1140 |
| CTNIP4^51–70 (peptide) | 3.91 | 568 |
| CTNIP4^54–70 (peptide) | 5.29 | 498 |
